Results as given in patent EP4751739A1, “ANTIBODY-DRUG CONJUGATE TARGETING C-MET AND MEDICAL USE THEREOF” (Jiangsu Hengrui Pharmaceuticals Co., Ltd., priority 2023, dated 2025).

Biological target: human c-Met on tumor cell lines (human) (UniProt P08581)
Assay: cell-based or functional assay

Sequence of human c-Met on tumor cell lines (human) (P08581 25-1390): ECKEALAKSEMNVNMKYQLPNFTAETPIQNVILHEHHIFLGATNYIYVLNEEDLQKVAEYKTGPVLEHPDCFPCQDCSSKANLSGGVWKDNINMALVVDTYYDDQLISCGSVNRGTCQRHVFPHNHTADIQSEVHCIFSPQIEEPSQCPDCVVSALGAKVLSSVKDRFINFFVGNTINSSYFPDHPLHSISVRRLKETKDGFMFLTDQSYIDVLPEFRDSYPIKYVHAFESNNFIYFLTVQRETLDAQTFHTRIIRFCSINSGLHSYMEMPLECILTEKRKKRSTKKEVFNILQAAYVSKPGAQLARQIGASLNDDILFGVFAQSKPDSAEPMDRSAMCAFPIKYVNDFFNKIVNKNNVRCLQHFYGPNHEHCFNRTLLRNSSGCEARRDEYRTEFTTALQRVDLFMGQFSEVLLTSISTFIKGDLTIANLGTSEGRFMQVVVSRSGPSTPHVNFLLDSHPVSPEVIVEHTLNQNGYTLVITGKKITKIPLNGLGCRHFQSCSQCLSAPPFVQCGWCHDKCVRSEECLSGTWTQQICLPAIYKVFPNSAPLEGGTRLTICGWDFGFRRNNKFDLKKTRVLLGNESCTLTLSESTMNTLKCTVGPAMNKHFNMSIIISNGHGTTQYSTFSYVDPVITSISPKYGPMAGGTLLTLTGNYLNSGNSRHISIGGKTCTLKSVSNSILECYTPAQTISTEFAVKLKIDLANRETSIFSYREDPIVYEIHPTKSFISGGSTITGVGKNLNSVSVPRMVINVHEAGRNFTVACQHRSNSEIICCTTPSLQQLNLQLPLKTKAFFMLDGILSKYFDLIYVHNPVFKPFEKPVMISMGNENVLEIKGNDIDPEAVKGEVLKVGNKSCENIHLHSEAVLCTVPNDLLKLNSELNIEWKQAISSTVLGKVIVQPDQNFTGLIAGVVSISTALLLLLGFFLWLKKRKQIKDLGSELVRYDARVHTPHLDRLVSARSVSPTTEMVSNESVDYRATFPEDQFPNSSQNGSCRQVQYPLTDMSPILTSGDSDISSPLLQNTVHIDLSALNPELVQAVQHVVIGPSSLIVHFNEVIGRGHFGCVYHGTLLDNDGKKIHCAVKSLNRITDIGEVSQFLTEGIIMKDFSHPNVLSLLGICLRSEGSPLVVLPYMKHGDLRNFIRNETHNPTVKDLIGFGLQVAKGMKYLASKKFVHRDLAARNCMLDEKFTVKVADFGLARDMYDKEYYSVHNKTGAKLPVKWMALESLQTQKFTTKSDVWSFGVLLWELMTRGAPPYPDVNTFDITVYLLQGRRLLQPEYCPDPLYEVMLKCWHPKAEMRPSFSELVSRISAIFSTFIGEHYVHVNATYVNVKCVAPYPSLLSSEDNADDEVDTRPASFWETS

| Endocytosis ratio% at 0 h, EBC-1 cells, 20 nM, flow cytometry | Endocytosis ratio% at 0.5 h, EBC-1 cells, 20 nM, flow cytometry | Endocytosis ratio% at 2 h, EBC-1 cells, 20 nM, flow cytometry | Endocytosis ratio% at 4 h, EBC-1 cells, 20 nM, flow cytometry | Endocytosis ratio% at 24 h, EBC-1 cells, 20 nM, flow cytometry | Substance |
| --- | --- | --- | --- | --- | --- |
| 0% | 5.54% | 29.3% | 54.2% | 97.8% | ABT-700 (antibody) |
| 0% | 4.36% | 31.7% | 58% | 97.3% | Teli-VcMMAE (antibody) |
